# Patent US20150293026A1, “Automated system for tissue histomorphometry” (priority 2010, published 2015)
# Tested on: mineralizing bone surface and GFP labeled osteoblast surface of long bones (femur)
# Assay: Automated bone histomorphometry of femur trabecula in PTH treated GFP reporter mice
# Assay type: in vivo
# Conditions: for AC measurements CL (common surface area of GFP marked osteoblast and AC stained label/bone surface area) / AC measurements NCL (surface area of AC stained label only/bone surface area) / AC measurements TL (total AC stained label area/bone surface area) / GFP measurements CL / GFP measurements NCL / GFP measurements TL: femur trabecula, day 7, mean
# Description: The combination of image analysis techniques (registration, segmentation, smoothing and thresh-holding) is amenable to automating histomorphometry analysis. We have used long bones (femur) of PTH treated, skeletally mature mice (8˜9 month old) whose transgenic expression of Col3.6GFP or Col2.3GFP is expected to be uniformly low. Each study had 2 groups of treatment experiments, one that is PTH treated and one that is vehicle (0.001 N HCl containing 1 mg/ml BSA) treated. Each treated study was terminated 1 day after 2 days, 3 days, and 7 days dose of treatment has been administered. A single red fluorochrome label (AC, alizarin complexone, 30 mg/Kg IP) has been administered concurrently with the final PTH dose approximately 24 hours prior to end of each study. The experimental quantification includes GFP labeled osteoblast surface, mineralizing bone surface and total bone surface.
# We need to measure both the AC stained label areas and GFP marked osteoblast areas that are commonly related to the same bone surface region. Often, the distance between the AC stained labels and the GFP marked osteoblast are not uniform, and sometimes they may be located far away. Our approach is to find the reference bone surfaces first, and then move the related AC stained labels and GFP marked osteoblast onto the reference bone surfaces using morphological transformation. FIG. 7(b) is the transformed image of FIG. 7(a). The red and green colors show, respectively, the AC stained labels and the GFP marked osteoblast on the bone surface. The yellow color is introduced to represent the common areas of AC stained labels and GFP marked osteoblast. From this projected image, we are able to calculate the ratios of the AC stained labels and GFP marked osteoblast of interest.
# Here PTH treated and vehicle treated studies use poBCol3.6GFP-Tpz and pOBCol2.3GFP-Emd, respectively, where the former is control and the latter is test. The measurement follows the bone volume measurement guideline presented in [Parfitt et al., 1987]. In Table 3, the following notations are used and each measurement is the percentage of 2D perimeter measurement over the total 2D bone surface area (Red=AC measurements, Cyan=GFP measurements).
# TL=total AC stained label area/bone surface area; CL=common surface area of the GFP marked osteoblast and AC stained label/bone surface area; NCL=surface area of the AC stained label only/bone surface area; TG=total surface area of the green GFP marked osteoblast/bone surface area; GL=common surface area of the GFP marked osteoblast and AC stained label/bone surface area; NGL=surface area of the GFP marked osteoblast only/bone surface area.
molecule,measurement,setting,value
"PTH: PTH given to skeletally mature transgenic GFP reporter mice for 2, 3 or 7 days; anticipated bone-forming effect (peptide, UniProt P01270 32-115, looked up, Parathyroid hormone) Parathyroid hormone: SVSEIQLMHNLGKHLNSMERVEWLRKKLQDVHNFVALGAPLAPRDAGSQRPRKKEDNVLVESHEKSLGEADKADVNVLTKAKSQ",AC measurements CL (common surface area of GFP marked osteoblast and AC stained label/bone surface area),Col 2.3-Emd mice,3.82%
same,AC measurements NCL (surface area of AC stained label only/bone surface area),Col 2.3-Emd mice,12.65%
same,AC measurements TL (total AC stained label area/bone surface area),Col 2.3-Emd mice,16.48%
same,GFP measurements CL,Col 2.3-Emd mice,3.82%
same,GFP measurements NCL,Col 2.3-Emd mice,8.00%
same,GFP measurements TL,Col 2.3-Emd mice,11.83%
same,AC measurements CL (common surface area of GFP marked osteoblast and AC stained label/bone surface area),Col 3.6-Tpz mice,5.47%
same,AC measurements NCL (surface area of AC stained label only/bone surface area),Col 3.6-Tpz mice,25.48%
same,AC measurements TL (total AC stained label area/bone surface area),Col 3.6-Tpz mice,31.23%
same,GFP measurements CL,Col 3.6-Tpz mice,5.74%
same,GFP measurements NCL,Col 3.6-Tpz mice,4.24%
same,GFP measurements TL,Col 3.6-Tpz mice,9.99%
same,"calcified bone areas (TL), PTH treated case compared with vehicle treated case","day 7, in words",more calcified bone areas (TL)
same,"number of GFP marked osteoblast (TG), PTH treated case compared with vehicle treated case","day 7, in words",more
